According to publication PMC11793155:

Assays:
[1] = immunofluorescence, confocal microscopy; details: glycan lost; control: untreated cells
[2] = cycloheximide chase 0-12 h, western blot; details: glycan lost; control: CHX alone

| Protein | localisation_or_trafficking [1] | degradation_or_half_life [2] |
| --- | --- | --- |
| ACTRIIB (activin receptor type IIB, ACVR2B): tunicamycin (TM) (protein) parent chain: MTAPWVALALLWGSLCAGSGRGEAETRECIYYNANWELERTNQSGLERCEGEQDKRLHCYASWRNSSGTIELVKKGCWLDDFNCYDRQECVATEENPQVYFCCCEGNFCNERFTHLPEAGGPEVTYEPPPTAPTLLTVLAYSLLPIGGLSLIVLLAFWMYRHRKPPYGHVDIHEDPGPPPPSPLVGLKPLQLLEIKARGRFGCVWKAQLMNDFVAVKIFPLQDKQSWQSEREIFSTPGMKHENLLQFIAAEKRGSNLEVELWLITAFHDKGSLTDYLKGNIITWNELCHVAETMSRGLSYLHEDVPWCRGEGHKPSIAHRDFKSKNVLLKSDLTAVLADFGLAVRFEPGKPPGDTHGQVGTRRYMAPEVLEGAINFQRDAFLRIDMYAMGLVLWELVSRCKAADGPVDEYMLPFEEEIGQHPSLEELQEVVVHKKMRPTIKDHWLKHPGLAQLCVTIEECWDHDAEARLSAGCVEERVSLIRRSVNGTTSDCLVSLVTSVTNVDLPPKESSI | decreases | – |
| ACTRIIB (activin receptor type IIB, ACVR2B): tunicamycin (TM) + CHX (protein) parent chain: MTAPWVALALLWGSLCAGSGRGEAETRECIYYNANWELERTNQSGLERCEGEQDKRLHCYASWRNSSGTIELVKKGCWLDDFNCYDRQECVATEENPQVYFCCCEGNFCNERFTHLPEAGGPEVTYEPPPTAPTLLTVLAYSLLPIGGLSLIVLLAFWMYRHRKPPYGHVDIHEDPGPPPPSPLVGLKPLQLLEIKARGRFGCVWKAQLMNDFVAVKIFPLQDKQSWQSEREIFSTPGMKHENLLQFIAAEKRGSNLEVELWLITAFHDKGSLTDYLKGNIITWNELCHVAETMSRGLSYLHEDVPWCRGEGHKPSIAHRDFKSKNVLLKSDLTAVLADFGLAVRFEPGKPPGDTHGQVGTRRYMAPEVLEGAINFQRDAFLRIDMYAMGLVLWELVSRCKAADGPVDEYMLPFEEEIGQHPSLEELQEVVVHKKMRPTIKDHWLKHPGLAQLCVTIEECWDHDAEARLSAGCVEERVSLIRRSVNGTTSDCLVSLVTSVTNVDLPPKESSI | – | decreases |
